This passage reports activity results from patent US20260218147, “CAS ENDONUCLEASE AND GUIDE RNA VARIANTS WITH IMPROVED EFFICIENCY” (PIONEER HI-BRED INTERNATIONAL, INC., published 2026).

Data set [1] deals with T1, Cas-alpha 10 variant T34E+M45S+F54D+G81E+G470D (synthetic construct, UniProt P0DW62 SEQ:1-497).
T1 chain: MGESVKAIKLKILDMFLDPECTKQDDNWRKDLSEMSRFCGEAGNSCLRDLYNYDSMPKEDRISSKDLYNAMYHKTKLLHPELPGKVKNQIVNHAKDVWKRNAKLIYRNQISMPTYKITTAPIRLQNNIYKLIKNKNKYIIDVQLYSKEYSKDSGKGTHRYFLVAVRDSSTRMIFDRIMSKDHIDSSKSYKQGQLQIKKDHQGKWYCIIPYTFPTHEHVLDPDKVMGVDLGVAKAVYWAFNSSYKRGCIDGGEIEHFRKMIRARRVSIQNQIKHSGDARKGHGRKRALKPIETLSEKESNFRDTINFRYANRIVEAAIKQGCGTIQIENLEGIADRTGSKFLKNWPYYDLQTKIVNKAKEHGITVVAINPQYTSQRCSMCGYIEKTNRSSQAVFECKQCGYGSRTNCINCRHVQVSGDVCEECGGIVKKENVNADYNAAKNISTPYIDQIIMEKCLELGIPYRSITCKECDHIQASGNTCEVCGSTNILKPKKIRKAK
Kind of data set: cell_activity; PAM GTTC; 37 C overnight. The settings on record: tags: SV40 NLS; chain copies: 2. As to the method:
(§1) K85Q was also predicted with AlphaFold to be involved in PAM recognition. Therefore, it was converted back to a K residue for M45S+F54D+G81E+K85Q+G470D (SEQ ID NO: 50) and T34E+M45S+F54D+G81E+K85Q+G470D (SEQ ID NO: 54) and re-tested using two ADE2 target sites. Testing was performed as described above and fold improvement in targeted DNA cleavage was calculated as described above, relative to the original protein.

Data set [2] addresses T2, Cas-alpha 10 variant M45S+F54D+G81E+G470D (synthetic construct, UniProt P0DW62 SEQ:1-497).
T2 chain: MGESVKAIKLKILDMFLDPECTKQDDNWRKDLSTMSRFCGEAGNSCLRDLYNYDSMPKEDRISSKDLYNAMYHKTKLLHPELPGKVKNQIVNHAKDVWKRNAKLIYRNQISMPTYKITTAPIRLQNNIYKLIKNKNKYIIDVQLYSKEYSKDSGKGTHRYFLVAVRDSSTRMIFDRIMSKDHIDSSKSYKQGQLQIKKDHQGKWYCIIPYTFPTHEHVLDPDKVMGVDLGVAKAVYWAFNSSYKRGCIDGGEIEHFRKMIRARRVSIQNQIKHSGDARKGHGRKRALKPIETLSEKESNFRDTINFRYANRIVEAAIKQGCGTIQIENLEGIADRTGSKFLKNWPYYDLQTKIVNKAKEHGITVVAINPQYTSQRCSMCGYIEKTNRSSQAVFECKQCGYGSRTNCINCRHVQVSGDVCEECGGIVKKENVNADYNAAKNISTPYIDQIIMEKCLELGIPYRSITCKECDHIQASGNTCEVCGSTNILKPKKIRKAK
Description: cell_activity; PAM GTTC; 37 C overnight. The settings on record: tags: SV40 NLS. How it is done: as §1

Data set [3] addresses T3, Cas-alpha 10 variant M45S+F54D+G81E+K85Q+G470D (synthetic construct, UniProt P0DW62 SEQ:1-497).
T3 chain: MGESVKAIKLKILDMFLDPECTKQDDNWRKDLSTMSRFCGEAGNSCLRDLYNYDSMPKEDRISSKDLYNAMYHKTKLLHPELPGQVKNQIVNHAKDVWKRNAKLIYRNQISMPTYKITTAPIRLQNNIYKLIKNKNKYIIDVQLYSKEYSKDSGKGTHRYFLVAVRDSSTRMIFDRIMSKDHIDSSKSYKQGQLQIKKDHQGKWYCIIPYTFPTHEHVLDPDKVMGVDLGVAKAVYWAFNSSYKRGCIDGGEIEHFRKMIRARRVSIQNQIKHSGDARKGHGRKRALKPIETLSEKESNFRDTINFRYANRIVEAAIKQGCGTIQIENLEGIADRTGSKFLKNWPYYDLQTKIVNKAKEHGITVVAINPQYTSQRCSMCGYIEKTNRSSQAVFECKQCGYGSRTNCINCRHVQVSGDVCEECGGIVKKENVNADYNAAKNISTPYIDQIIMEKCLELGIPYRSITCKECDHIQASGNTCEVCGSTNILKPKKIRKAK
Description: cell_activity; PAM GTTC; 37 C overnight. Particulars: tags: SV40 NLS; chain copies: 2. As to the method: as §1

The target of data set [4] is T4, Cas-alpha 10 base variant (synthetic construct, UniProt P0DW62 SEQ:1-497).
T4 chain: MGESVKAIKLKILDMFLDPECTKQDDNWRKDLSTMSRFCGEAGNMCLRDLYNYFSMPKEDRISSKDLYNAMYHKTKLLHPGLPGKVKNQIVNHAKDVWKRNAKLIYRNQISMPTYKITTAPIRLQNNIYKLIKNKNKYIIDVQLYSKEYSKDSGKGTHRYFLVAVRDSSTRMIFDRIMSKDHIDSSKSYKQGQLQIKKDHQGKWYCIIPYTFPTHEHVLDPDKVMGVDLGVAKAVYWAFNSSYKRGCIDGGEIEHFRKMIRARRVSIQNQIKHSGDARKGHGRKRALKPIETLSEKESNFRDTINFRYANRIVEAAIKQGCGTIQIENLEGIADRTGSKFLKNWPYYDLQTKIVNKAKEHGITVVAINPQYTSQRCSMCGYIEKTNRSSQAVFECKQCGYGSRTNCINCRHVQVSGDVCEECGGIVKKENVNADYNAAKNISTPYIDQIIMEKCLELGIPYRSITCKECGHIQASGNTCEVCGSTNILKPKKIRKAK
Kind of data set: cell_activity; PAM GTTC; 37 C overnight. Particulars: tags: SV40 NLS; chain copies: 2. How it is done:
as §1

The target in data set [5] is T5, Cas-alpha 10 variant T34E+M45S+F54D+G81E+K85Q+G470D (synthetic construct, UniProt P0DW62 SEQ:1-497).
T5 chain: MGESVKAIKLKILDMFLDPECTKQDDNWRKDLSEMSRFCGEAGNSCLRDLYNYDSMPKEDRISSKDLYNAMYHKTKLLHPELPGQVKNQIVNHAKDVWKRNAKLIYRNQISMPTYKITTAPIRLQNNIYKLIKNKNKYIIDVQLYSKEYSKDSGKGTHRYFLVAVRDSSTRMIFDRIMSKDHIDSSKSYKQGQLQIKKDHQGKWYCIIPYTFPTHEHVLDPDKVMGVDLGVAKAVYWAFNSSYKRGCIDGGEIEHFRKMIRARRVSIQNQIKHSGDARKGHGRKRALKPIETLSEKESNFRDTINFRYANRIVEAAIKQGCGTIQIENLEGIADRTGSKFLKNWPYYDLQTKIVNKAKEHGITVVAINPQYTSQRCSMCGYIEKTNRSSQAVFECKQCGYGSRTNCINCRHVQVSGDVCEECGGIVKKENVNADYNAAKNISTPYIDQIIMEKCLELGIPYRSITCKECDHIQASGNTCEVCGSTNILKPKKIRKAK
Description: cell_activity; PAM GTTC; 37 C overnight. The settings on record: tags: SV40 NLS; chain copies: 2. How it is done: as §1

In data set [6] the target is T6, Cas-alpha 10 wild type (Cas12f) (Syntrophomonas palmitatica, UniProt P0DW62 SEQ:1-497).
T6 sequence: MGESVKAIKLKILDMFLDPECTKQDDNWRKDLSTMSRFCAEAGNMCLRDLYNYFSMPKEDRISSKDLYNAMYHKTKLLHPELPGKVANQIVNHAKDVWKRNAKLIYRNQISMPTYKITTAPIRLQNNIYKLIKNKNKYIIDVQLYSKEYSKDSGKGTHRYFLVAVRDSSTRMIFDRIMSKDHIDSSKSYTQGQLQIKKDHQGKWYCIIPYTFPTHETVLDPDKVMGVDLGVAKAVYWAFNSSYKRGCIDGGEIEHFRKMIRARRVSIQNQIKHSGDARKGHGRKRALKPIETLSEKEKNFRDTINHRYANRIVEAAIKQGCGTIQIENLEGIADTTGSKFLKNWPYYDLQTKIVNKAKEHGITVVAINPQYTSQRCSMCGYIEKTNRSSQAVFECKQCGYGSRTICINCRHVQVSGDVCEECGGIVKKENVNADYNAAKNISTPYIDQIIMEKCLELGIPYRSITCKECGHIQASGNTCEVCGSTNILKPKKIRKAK
Kind of data set: cell_activity; PAM GTTC; maize, 3x4 hr 45 C. The settings on record: tags: SV40 NLS; chain copies: 2. As to the method: (§2) The resulting T-DNA was then placed into LBA4404, a thymine auxotrophic strain of Agrobacterium tumefaciens, containing Vir9, a separate plasmid encoding the Bo542 virulence genes (US20170121722A1 and WO 2017/078836). The resulting Agrobacterium strain was then used to transform nine-to-ten-day old immature maize embryos (approximately 2 mm in size) by submersion in 700A liquid media containing the strain at an optical density (OD) of 0.4 to 2.0 at 550 nm for 5 min. and then removed from the media and placed on solid co-cultivation medium overnight at 21° C. in the dark. Following T-DNA delivery, embryos are transferred to resting media, 13266R, and grown in the dark at 28° C. for 5-7 days. Next, coleoptiles were removed, and embryos transferred to selection media for 11-16 days and kept in the dark at 28° C. They were then moved to maturation media and incubated for 14-25 days in the dark at 28° C. and then subject to light for 2-5 days. Next, they were moved to rooting media and incubated at 26-28° C. under light for 14-28 days refreshing media as needed. To examine Cas-alpha nuclease-guide RNA activity, transformed tissue was incubated at 28° C., standard for Agrobacterium transformation, or at a range of temperatures lower or higher than 28° C.
(§3) In a third study, the efficiency of targeted mutagenesis of Cas-alpha 10 endonuclease variants, SEQ ID NOs:14, 48, 60, and 157, were compared when tested with two sgRNA recognition domains, SEQ ID NOs:61 and 327, at two target sites, MS26 and D8. Experiments were carried-out in Zea mays using Agrobacterium (Agro) transformation as described in Example 2. Two temperature regimens were performed. The first subjected Agro transformed embryos (once per day) to 45° C. for 4 hrs on days 3, 4, and 5 (3×4 hr 45° C.) after infection and the second to a continuous incubation at 37° C. on days 1-3 (1-3d 37° C.) following infection. For both regimens, embryos were placed at 28° C. before and after temperature treatment. […]

In data set [7] the target is T7, Cas-alpha 10 variant G81E (synthetic construct, UniProt P0DW62 SEQ:1-497).
T7 chain: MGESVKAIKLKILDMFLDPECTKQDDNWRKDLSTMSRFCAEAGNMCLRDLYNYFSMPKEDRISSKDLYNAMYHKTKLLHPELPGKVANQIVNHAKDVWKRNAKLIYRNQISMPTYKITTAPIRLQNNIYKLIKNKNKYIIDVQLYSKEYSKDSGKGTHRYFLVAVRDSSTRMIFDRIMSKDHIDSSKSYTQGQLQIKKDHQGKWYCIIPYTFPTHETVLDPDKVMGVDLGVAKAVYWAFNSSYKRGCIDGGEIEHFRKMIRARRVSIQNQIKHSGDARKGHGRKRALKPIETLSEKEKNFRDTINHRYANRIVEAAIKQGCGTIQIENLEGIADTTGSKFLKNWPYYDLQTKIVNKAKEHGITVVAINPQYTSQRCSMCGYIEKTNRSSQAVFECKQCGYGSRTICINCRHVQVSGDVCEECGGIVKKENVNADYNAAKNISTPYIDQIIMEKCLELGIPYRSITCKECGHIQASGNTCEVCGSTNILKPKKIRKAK
Kind of data set: cell_activity; PAM GTTC; maize, 3x4 hr 45 C. Particulars: tags: SV40 NLS; chain copies: 2. How it is done: as §2, §3

B1: sgRNA ADE2-CR1 ; ADE2-CR1 target (ssRNA ; dsDNA)
RNA: AUUUACUCUGUUUCGCGCGCCAGGGCAGUUAGGUGCCCUAAAAGAGCGAAGUGGCCGAAAGGAAAGGCUAACGCUUCUCUAACGCUACGGCGACCUUGGCGAAAUGCCAUCAAUACCACGCGGCCCGAAAGGGUUCGCGCGAAACUGAGUAAUGAAAGUCGCAUCUUGCGUAAGCGCGUGGAUUGAAACCUACACUAAAGAAUCUUCAA
DNA 1: GTTCCTACACTAAAGAATCTTCAA
DNA 2: TTGAAGATTCTTTAGTGTAGGAAC
In the case of B1, the activity in data set [1] was 64.5 % red yeast; in data set [2] it was 45.4 % red yeast; in data set [3], 5.19 % red yeast; in data set [4], 2.76 % red yeast; in data set [5] it was 7.48 % red yeast.

B2: sgRNA MS26 (recognition domain SEQ 327) ; MS26 target (ssRNA ; dsDNA)
RNA: GUUUCGCGCGCCAGGGCAGUUAGGUGCCCUAAAAGAGCGAAGUGGCCGAAAGGAAAGGCUAACGCUUCUCUAACGCUACGGCGACCUUGGCGAAAUGCCAUCAAUACCACGCGGCCCGAAAGGGUUCGCGCGAAACGAAAUAAGCGCGUGGAUUGAAACAAGUUCACGGCGUUCCAGGC
DNA 1: GTTCAAGTTCACGGCGTTCCAGGC
DNA 2: GCCTGGAACGCCGTGAACTTGAAC
Take B2: the activity turned out to be 4.67 % targeted mutagenesis in data set [6] and 15.5 % targeted mutagenesis in data set [7].
